According to US20150086562A1 (BIOATLA, published 2015):
Residue numbers refer to the chain shown, from its start. One block for each binder: values may come before it.

Assays:
[1] = molecular target: T1, CD22 protein expressed on the surface of Daudi cells (human, UniProt P20273 20-847); test: cell-based or functional assay
T1 sequence (looked up): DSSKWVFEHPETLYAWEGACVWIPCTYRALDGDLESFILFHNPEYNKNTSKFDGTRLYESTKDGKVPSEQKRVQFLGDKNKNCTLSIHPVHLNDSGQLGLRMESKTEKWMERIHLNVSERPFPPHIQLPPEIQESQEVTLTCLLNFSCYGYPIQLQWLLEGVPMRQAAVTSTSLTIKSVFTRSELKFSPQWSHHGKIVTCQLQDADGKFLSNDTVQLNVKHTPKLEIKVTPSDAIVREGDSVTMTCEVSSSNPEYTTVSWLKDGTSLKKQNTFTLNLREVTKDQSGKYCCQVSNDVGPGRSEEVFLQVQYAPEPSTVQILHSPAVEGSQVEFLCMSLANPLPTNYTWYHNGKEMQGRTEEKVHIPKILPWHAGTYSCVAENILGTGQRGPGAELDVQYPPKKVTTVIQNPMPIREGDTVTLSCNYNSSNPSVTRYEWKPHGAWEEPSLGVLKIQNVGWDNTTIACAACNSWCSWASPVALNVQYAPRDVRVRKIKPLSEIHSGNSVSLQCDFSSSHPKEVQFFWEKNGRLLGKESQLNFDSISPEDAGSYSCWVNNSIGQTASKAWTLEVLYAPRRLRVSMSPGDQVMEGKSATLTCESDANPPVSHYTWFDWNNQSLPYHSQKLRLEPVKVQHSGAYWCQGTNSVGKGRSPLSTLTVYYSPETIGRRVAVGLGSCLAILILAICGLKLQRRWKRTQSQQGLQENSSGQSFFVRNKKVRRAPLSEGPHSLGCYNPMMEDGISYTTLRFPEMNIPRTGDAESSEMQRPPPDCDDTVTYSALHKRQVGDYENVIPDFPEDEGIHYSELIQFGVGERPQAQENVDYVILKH

[2] = molecular target: T2, recombinant CD22 extracellular domain; test: ELISA on plates coated with recombinant CD22 extracellular domain (coating 2, 0.2, 0.02 or 0.002 ug/ml per paragraph 227; the sheet does not say which), anti-human IgG-HRP, read at 450 nm
T2 construct: Kept apart from m18, which is cell-surface CD22; also called CD22 (analyte in the BIAcore runs); CD22 ECD
Protocol: Nunc-Immuno MaxiSorp 96 well plates were coated with 100 μl of 2 μg/ml, 0.2 μg/ml, 0.02 μg/ml or 0.002 μg/ml recombinant CD22 extracellular domain (PeproTech, Inc. catalog number 100-01 in coating solution (sodium bicarbonate in PBS). The plates were covered with plate sealer and incubated at 4° C. overnight. Plates were emptied and the residual liquid tapped out on paper towels. 200 μl washing solution (0.05% Tween-20 in PBS) was added and shaken at 200 RPM for 5 min at room temperature. The plates were emptied and residual liquid tapped out on paper towels. 200 μl blocking solution (2% Carnation milk in PBS) was added and shaken at 200 RPM for one hour at room temperature. Plates were emptied and residual liquid tapped out on paper towels. 100 μl of diluted samples containing VM1000, VM1001, VM1002, VM1003, VM1004, VM1005, VM1006, VM1007, VM1008, VM1009, VM1010, VM1011, VM1012, VM1013, VM1014, and VM1015 antibodies for ELISA were used. The samples were shaken at 200 RPM for one hour at room temperature; plates emptied and residual liquid tapped out on paper towels. 200 μl washing solution (0.05% Tween-20 in PBS) was added, shaken at 200 RPM for 5 min at room temperature; plates emptied and residual liquid tapped out on paper towels. This process was repeated three times. 100 μl of 1:2500 dilution of anti-human IgG conjugated with HRP diluted in block solution (2% Carnation milk in PBS) was added for all samples. 100 μl of 1:2500 dilution of anti-rabbit IgG conjugated with HRP diluted in block solution (2% Carnation milk in PBS) was added for control antibody. The contents were shaken at 200 RPM for one hour at room temperature, plates emptied and residue liquid tapped out on paper towels. 200 μl washing solution (0.05% Tween-20 in PBS) was added, shaken at 200 RPM for 5 min at room temperature; plates emptied and residual liquid tapped out on paper towels. This process was repeated three times. 100 μl TMB substrate solution was added, and incubated at room temperature. The reaction was stopped with 1 N HCl, and the plate read at 450 nm to determine relative binding affinity (FIG. 17).

[3] = molecular target: T2, recombinant CD22 extracellular domain; test: The sheet does not state the method. The column 'KD (nM)' stands beside the confocal data, and the target form is taken from FIGURE 18. FIGURE 18 prints 0.30 for this clone.
Protocol: BIAcore 3000, GE Healthcare was used to determine binding curves and kinetic parameters. An anti-human Fc (1.8 mg/ml) was diluted to a concentration of 50 ug/ml in NaOAc buffer (10 mM, pH 4.8) and coupled to the carboxymethylated dextran matrix of a CM-5 sensor chip using the manufacturer's amine-coupling chemistry as described in the BIAcore systems manual. Using the surface preparation wizard aiming for 10000RU, the carboxyl groups on the sensor surfaces were first activated with NHS/EDC followed by the addition of the anti-human Fc. The remaining activated groups were blocked by the injection of 1M ethanolamine. Each of the flow cells was coupled individually. Employing these conditions, the four flow cell surfaces containing 7554-9571 RU of anti-human Fc were prepared. In preliminary experiments, it was determine that three injections (15 ul at 30 ul/min) 100 mM H₃PO₄/0.05% CHAPS would efficiently remove the bound immunoglobulin and preserve the binding capacity of the immobilized anti-human Fc.
Experiments were performed on the BIAcore 3000 at 25° C. and a flow rate of 30 ul/min. […] Using the 1:1 model in BIAevaluation 4.1, both a local fit and global fit was done for both dissociation (kd, [s−1] and association (ka, [M⁻¹s⁻¹]) and the dissociation constant (KD, [M]) calculated (kd/ka).

- Daudi Internalization by FACS, % Shift [1]: 85.9%
- ELISA OD 450 [2]: 0.517
B1: VM1000 (antibody, V domains shown)
VH: QVQLVQSGAEVKKPGASVKVSCKASGYVFTSYWLHWIRQSPSRGLEWLGYINPRNDYTEYNRIFKGRLTISKDTSKNQVVLTMTNMDPVDTATYYCARRGITTFYWGQG
VL: EIVLTQSPATLSLSPGERATLSCKSSQSVLYSAVEKNYLAWYQQKPGKAPKLLIYWASTRERGVPSRFSGSGSGTDFTFTISSLQPEDIATYYCKQYLSSWTFGQG
notes: Humanized antibody with human constant region; also called anti-CD22 Mab clone VM1000

- Daudi Internalization by FACS, % Shift [1]: 84.6%
- ELISA OD 450 [2]: 0.495
B2: VM1002 (antibody, V domains shown)
VH: EVQLVQSGAEVKKPGESLRISCKGSGYVFTSYWLHWVRQAPGQGLEWMGYINPRNDYTEYNRIFKGRVTITADKSTSTAYMELSSLRSEDTAVYYCARRGITTFYWGQG
VL: B1 VL with K48Q, K51R, V64I, S66D, F79L, S83R, Q85E, I89F, T91V
notes: Humanized antibody with human constant region; also called anti-CD22 Mab clone VM1002

- Daudi Internalization by FACS, % Shift [1]: 87.1%
- ELISA OD 450 [2]: 0.444
B3: VM1004 (antibody, V domains shown)
VH: EVQLVQSGAEVKKPGATVKISCKVSGYVFTSYWLHWIRQSPSRGLEWLGYINPRNDYTEYNRIFKGRFVFSLDTSVSTAYLQICSLKAEDTAVYYCARRGITTFYWGQG
VL: B1 VL with V64I, S66D, F79L, S83R, Q85E, I89F, T91V
notes: Humanized antibody with human constant region; also called anti-CD22 Mab clone VM1004

- Daudi Internalization by FACS, % Shift [1]: 87.1%
- ELISA OD 450 [2]: 0.15
B4: VM1011 (antibody, V domains shown)
VH: QVQLQESGPGLVKPSQTLSLTCTVSGYVFTSYWLHWIRQPPGKGLEWIGYINPRNDYTEYNRIFKGRVTITADKSTSTAYMELSSLRSEDTAVYYCARRGITTFYWGQG
VL: B1 VL with K48Q, K51R, V64I, S66D, F79L, S83R, Q85E, I89F, T91V
notes: Humanized antibody with human constant region; also called anti-CD22 Mab clone VM1011

- Daudi Internalization by FACS, % Shift [1]: 70.8%
- ELISA OD 450 [2]: 0.56
B5: VM1003 (antibody, V domains shown)
VH: B3 VH
VL: B1 VL with K48Q, K51R, V64I, S66D, F79L, S83R, Q85E, I89F, T91V
notes: Humanized antibody with human constant region; also called anti-CD22 Mab clone VM1003

- Daudi Internalization by FACS, % Shift [1]: 86.4%
- ELISA OD 450 [2]: 0.386
B6: VM1001 (antibody, V domains shown)
VH: B1 VH
VL: B1 VL with K48Q, K51R, V64I, S66D, F79L, S83R, Q85E, I89F, T91V
notes: Humanized antibody with human constant region; also called anti-CD22 Mab clone VM1001

- Daudi Internalization by FACS, % Shift [1]: 88.3%
- Kd [3]: 2.7 nM
- ELISA OD 450 [2]: 0.638
B7: VM1006 (antibody, V domains shown)
VH: B3 VH with E1Q, T17S, I20V, V24A
VL: DIQMTQSPSSLSASVGDRVTITCKSSQSVLYSAVEKNYLAWYQQKPGKAPKLLIYWASTRERGIPDRFSGSGSGTDFTLTISRLEPEDFAVYYCKQYLSSWTFGQG
notes: Humanized antibody with human constant region; also called anti-CD22 Mab clone VM1006

- Daudi Internalization by FACS, % Shift [1]: 85%
- ELISA OD 450 [2]: 0.538
B8: VM1007 (antibody, V domains shown)
VH: B2 VH with E1Q, E16A, L18V, R19K, I20V, G24A, P41R, G44R, M48I
VL: B7 VL with D1A, M4L, I64V, D66S, L79F, R83S, P86A, F89A, V91T
notes: Humanized antibody with human constant region; also called anti-CD22 Mab clone VM1007
